T1: Bfl-1, Q16548
T1 chain: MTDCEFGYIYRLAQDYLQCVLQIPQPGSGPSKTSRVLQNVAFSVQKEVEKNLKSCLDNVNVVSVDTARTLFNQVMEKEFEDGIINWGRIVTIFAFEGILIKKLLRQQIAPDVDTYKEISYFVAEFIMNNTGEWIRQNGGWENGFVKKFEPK

T2: Mcl-1, Q07820
T2 chain: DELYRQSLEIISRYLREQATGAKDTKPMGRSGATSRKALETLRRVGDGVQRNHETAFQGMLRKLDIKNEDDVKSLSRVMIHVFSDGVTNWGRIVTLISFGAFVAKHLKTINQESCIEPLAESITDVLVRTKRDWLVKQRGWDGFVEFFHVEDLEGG


Key:
Assay in all cases: peptide SPOT array, c-Myc-tagged receptor at 1 uM or 100 nM, anti-c-Myc-Cy3
Bfl-1, Q16548 = target: T1, Bfl-1, Q16548
Bcl-xL, Q07817 = target: Bcl-xL, Q07817
Mcl-1, Q07820 = target: T2, Mcl-1, Q07820

Sequence of Bcl-xL, Q07817 (Q07817 1-209): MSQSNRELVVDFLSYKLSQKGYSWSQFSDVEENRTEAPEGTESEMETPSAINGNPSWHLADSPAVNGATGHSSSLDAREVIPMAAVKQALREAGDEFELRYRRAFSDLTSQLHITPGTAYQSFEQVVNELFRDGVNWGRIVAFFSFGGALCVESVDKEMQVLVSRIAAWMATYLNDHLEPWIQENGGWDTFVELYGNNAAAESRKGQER

| Binder | SPOT signal as a fraction of Bim BH3's signal on the same receptor and array (Bfl-1, Q16548) | SPOT signal as a fraction of Bim BH3's signal on the same receptor and array (Bcl-xL, Q07817) | SPOT signal as a fraction of Bim BH3's signal on the same receptor and array (Mcl-1, Q07820) |
| --- | --- | --- | --- |
| VLLTLLVAAVLRCQLQDVQEAGSCVQ [COL2A1] | 0.04 | 0.05 | 0.06 |
| GSPDSMFGISLAVLGDLNQDGFPDIA [ITGA7] | 0.08 | 0.07 | 0.04 |
| APGEEDLCAADNVICDNVGKDWRRLA [FADD] | 0.04 | 0.06 | 0.03 |
| CGEWTRRSLHLRVLLRQLILPTDKGV [FAM149A] | 0.51 | 0.53 | 0.53 |
| SEIMHSFAKCIEVMGDGCLNNEHFEE [IPO5] | 0.03 | 0.09 | 0.04 |
| VDSIRPKCQELRHLLDQFSAEIARRR [MCF2L] | 0.27 | 0.6 | 0.25 |
| KGTAVAICRRDGIFGDTEDVAGKAYT [ATP2A3] | 0.06 | 0.08 | 0.08 |
| ELDEDDLEAELDALGDELLADEDSSY [CHMP5] | 0.03 | 0.06 | 0.03 |
| FSKREKLVEIDRNIGDERTMVFVETK [DDX4] | 0.06 | 0.06 | 0.07 |
| HTALENCASLLCIRADELQEALTSHC | 0.03 | 0.07 | 0.03 |
| MQTLSELAKSFQDMADRCLLVLHLEV | 0.04 | 0.05 | 0.04 |
| MQTLSELAKSFQDMLDRCLLVLHLEV | 0.04 | 0.05 | 0.04 |
| AFGLGDLPNLDGLVGDQLGDTERKRR [ADAMTS14] | 0.04 | 0.05 | 0.04 |
| HTALENCASLLCIRLDELQEALTSHC | 0.03 | 0.05 | 0.03 |

The next lines start with the values.

| SPOT signal as a fraction of Bim BH3's signal on the same receptor and array (Bfl-1, Q16548) | SPOT signal as a fraction of Bim BH3's signal on the same receptor and array (Bcl-xL, Q07817) | SPOT signal as a fraction of Bim BH3's signal on the same receptor and array (Mcl-1, Q07820) | Binder |
| --- | --- | --- | --- |
| 0.03 | 0.06 | 0.04 | TSRINEVQVNLSLLGDDLLLPAQSTL [SPHKAP] |
| 0.13 | 0.27 | 0.15 | ACGDSVLARMDRELGDSLRRPQLRLW [SLC19A1] |
| 0.04 | 0.11 | 0.04 | PSECETLGSNDGHNADLLNENNILAK [ZFP90] |
| 0.07 | 0.11 | 0.1 | LALMMQLARELKTLLRDLGMAVVVTN [RAD51L3] |
| 0.04 | 0.05 | 0.04 | QEQEQHVPFDDHTYGDQLVSRFPQLN [NCAPH2] |
| 0.05 | 0.08 | 0.04 | IQENVDISTVYQIFADEVLGSGQFGI [PRKD3] |
| 0.21 | 0.38 | 0.25 | ERLKGQLCDVLLIVGDQKFRAHKNVL [ZNF295] |
| 0.45 | 0.72 | 0.63 | TAGLRPGARLDRVCGQTLPSLRPEAA [SIPA1] |
| 0.05 | 0.06 | 0.04 | DDMFEPHSWNLKELSDDCFQQWGVRP [PRCP] |
| 0.06 | 0.07 | 0.06 | ELLYGIWSNCLGLILDSFHMFFDSTA [SLC30A7] |
| 0.08 | 0.07 | 0.08 | TETKATFGVHLKIVLDWTERFRDLLL [NOX4] |
